The values below come from paper PMC2737813 (Cell host & microbe, 2009).

The target in the assay is MBP-TRIM25-FLAG (human, UniProt Q14258 1-630). As to the kind of experiment: pull-down.
Sequence of MBP-TRIM25-FLAG (Q14258 whole entry): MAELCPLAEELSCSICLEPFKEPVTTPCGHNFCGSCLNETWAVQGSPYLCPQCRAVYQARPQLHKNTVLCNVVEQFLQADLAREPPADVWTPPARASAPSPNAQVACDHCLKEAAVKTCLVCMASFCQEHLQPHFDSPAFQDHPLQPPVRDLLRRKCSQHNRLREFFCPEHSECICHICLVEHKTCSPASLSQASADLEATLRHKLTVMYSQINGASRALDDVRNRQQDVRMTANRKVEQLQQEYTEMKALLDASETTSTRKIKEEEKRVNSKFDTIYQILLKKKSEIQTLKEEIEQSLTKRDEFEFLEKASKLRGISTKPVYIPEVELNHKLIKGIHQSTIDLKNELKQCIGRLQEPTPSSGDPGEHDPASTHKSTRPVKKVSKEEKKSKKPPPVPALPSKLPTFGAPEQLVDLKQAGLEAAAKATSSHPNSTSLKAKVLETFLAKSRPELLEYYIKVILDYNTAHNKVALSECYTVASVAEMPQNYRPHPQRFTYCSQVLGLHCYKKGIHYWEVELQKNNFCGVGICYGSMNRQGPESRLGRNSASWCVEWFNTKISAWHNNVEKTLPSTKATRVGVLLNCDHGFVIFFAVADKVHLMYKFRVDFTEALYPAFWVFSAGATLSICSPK

B1: GST-PR8 wt NS1 (natural protein)
chain: MDPNTVSSFQVDCFLWHVRKRVADQELGDAPFLDRLRRDQKSLRGRGSTLGLDIETATRAGKQIVERILKEESDEALKMTMASVPASRYLTDMTLEEMSRDWSMLIPKQKVAGPLCIRMDQAIMDKNIILKANFSVIFDRLETLILLRAFTEEGAIVGEISPLPSLPGHTAEDVKNAVGVLIGGLEWNDNTVRVSETLQRFAWRSSNENGRPPLTPKQKREMAGTIRSEV
B1: the binding result is on record as “binds”.
